Results reported in patent US20150164995A1 (Sanofi, published 2015).
Where two headings read alike, the source gives them in different places. Square brackets hold non-standard residues; d marks the D form. Ends that are not written are not given here. Nle = CCCC[C@H](N)C(=O)O; Aib = CC(C)(N)C(=O)O

B1: SEQ ID NO: 9 (peptide)
peptide: Y[Aib]EGTFTSDLSIQLEKRAA[Aib]EFIEWLKAGGPSSGAPPPS-NH2
modifications: N-terminus assumed
SMILES: CC[C@H](C)[C@H](NC(=O)[C@H](CO)NC(=O)[C@H](CC(C)C)NC(=O)[C@H](CC(=O)O)NC(=O)[C@H](CO)NC(=O)[C@@H](NC(=O)[C@H](Cc1ccccc1)NC(=O)[C@@H](NC(=O)CNC(=O)[C@H](CCC(=O)O)NC(=O)C(C)(C)NC(=O)[C@@H](N)Cc1ccc(O)cc1)[C@@H](C)O)[C@@H](C)O)C(=O)N[C@@H](CCC(N)=O)C(=O)N[C@@H](CC(C)C)C(=O)N[C@@H](CCC(=O)O)C(=O)N[C@@H](CCCCN)C(=O)N[C@@H](CCCNC(=N)N)C(=O)N[C@@H](C)C(=O)N[C@@H](C)C(=O)NC(C)(C)C(=O)N[C@@H](CCC(=O)O)C(=O)N[C@@H](Cc1ccccc1)C(=O)N[C@H](C(=O)N[C@@H](CCC(=O)O)C(=O)N[C@@H](Cc1c[nH]c2ccccc12)C(=O)N[C@@H](CC(C)C)C(=O)N[C@@H](CCCCN)C(=O)N[C@@H](C)C(=O)NCC(=O)NCC(=O)N1CCC[C@H]1C(=O)N[C@@H](CO)C(=O)N[C@@H](CO)C(=O)NCC(=O)N[C@@H](C)C(=O)N1CCC[C@H]1C(=O)N1CCC[C@H]1C(=O)N1CCC[C@H]1C(=O)N[C@@H](CO)C(N)=O)[C@@H](C)CC
B2: SEQ ID NO: 10 (peptide)
peptide: Y[Aib]EGTFTSDLSIQ[Nle]EKRAA[Aib]EFIEWLKAGGPSSGAPPPS-NH2
modifications: N-terminus assumed
SMILES: CCCC[C@H](NC(=O)[C@H](CCC(N)=O)NC(=O)[C@@H](NC(=O)[C@H](CO)NC(=O)[C@H](CC(C)C)NC(=O)[C@H](CC(=O)O)NC(=O)[C@H](CO)NC(=O)[C@@H](NC(=O)[C@H](Cc1ccccc1)NC(=O)[C@@H](NC(=O)CNC(=O)[C@H](CCC(=O)O)NC(=O)C(C)(C)NC(=O)[C@@H](N)Cc1ccc(O)cc1)[C@@H](C)O)[C@@H](C)O)[C@@H](C)CC)C(=O)N[C@@H](CCC(=O)O)C(=O)N[C@@H](CCCCN)C(=O)N[C@@H](CCCNC(=N)N)C(=O)N[C@@H](C)C(=O)N[C@@H](C)C(=O)NC(C)(C)C(=O)N[C@@H](CCC(=O)O)C(=O)N[C@@H](Cc1ccccc1)C(=O)N[C@H](C(=O)N[C@@H](CCC(=O)O)C(=O)N[C@@H](Cc1c[nH]c2ccccc12)C(=O)N[C@@H](CC(C)C)C(=O)N[C@@H](CCCCN)C(=O)N[C@@H](C)C(=O)NCC(=O)NCC(=O)N1CCC[C@H]1C(=O)N[C@@H](CO)C(=O)N[C@@H](CO)C(=O)NCC(=O)N[C@@H](C)C(=O)N1CCC[C@H]1C(=O)N1CCC[C@H]1C(=O)N1CCC[C@H]1C(=O)N[C@@H](CO)C(N)=O)[C@@H](C)CC
B3: SEQ ID NO: 12 (peptide)
peptide: Y[Aib]EGTFTSDLSIQLDKRAA[Aib]EFIEWLKAGGPSSGAPPPS-NH2
modifications: N-terminus assumed
SMILES: CC[C@H](C)[C@H](NC(=O)[C@H](CO)NC(=O)[C@H](CC(C)C)NC(=O)[C@H](CC(=O)O)NC(=O)[C@H](CO)NC(=O)[C@@H](NC(=O)[C@H](Cc1ccccc1)NC(=O)[C@@H](NC(=O)CNC(=O)[C@H](CCC(=O)O)NC(=O)C(C)(C)NC(=O)[C@@H](N)Cc1ccc(O)cc1)[C@@H](C)O)[C@@H](C)O)C(=O)N[C@@H](CCC(N)=O)C(=O)N[C@@H](CC(C)C)C(=O)N[C@@H](CC(=O)O)C(=O)N[C@@H](CCCCN)C(=O)N[C@@H](CCCNC(=N)N)C(=O)N[C@@H](C)C(=O)N[C@@H](C)C(=O)NC(C)(C)C(=O)N[C@@H](CCC(=O)O)C(=O)N[C@@H](Cc1ccccc1)C(=O)N[C@H](C(=O)N[C@@H](CCC(=O)O)C(=O)N[C@@H](Cc1c[nH]c2ccccc12)C(=O)N[C@@H](CC(C)C)C(=O)N[C@@H](CCCCN)C(=O)N[C@@H](C)C(=O)NCC(=O)NCC(=O)N1CCC[C@H]1C(=O)N[C@@H](CO)C(=O)N[C@@H](CO)C(=O)NCC(=O)N[C@@H](C)C(=O)N1CCC[C@H]1C(=O)N1CCC[C@H]1C(=O)N1CCC[C@H]1C(=O)N[C@@H](CO)C(N)=O)[C@@H](C)CC
B4: SEQ ID NO: 11 (peptide)
peptide: Y[Aib]EGTFTSDLSIQLEKRAA[Aib]EFIEWLKAGGPSSGAPPPSK-NH2
modifications: N-terminus assumed
SMILES: CC[C@H](C)[C@H](NC(=O)[C@H](CO)NC(=O)[C@H](CC(C)C)NC(=O)[C@H](CC(=O)O)NC(=O)[C@H](CO)NC(=O)[C@@H](NC(=O)[C@H](Cc1ccccc1)NC(=O)[C@@H](NC(=O)CNC(=O)[C@H](CCC(=O)O)NC(=O)C(C)(C)NC(=O)[C@@H](N)Cc1ccc(O)cc1)[C@@H](C)O)[C@@H](C)O)C(=O)N[C@@H](CCC(N)=O)C(=O)N[C@@H](CC(C)C)C(=O)N[C@@H](CCC(=O)O)C(=O)N[C@@H](CCCCN)C(=O)N[C@@H](CCCNC(=N)N)C(=O)N[C@@H](C)C(=O)N[C@@H](C)C(=O)NC(C)(C)C(=O)N[C@@H](CCC(=O)O)C(=O)N[C@@H](Cc1ccccc1)C(=O)N[C@H](C(=O)N[C@@H](CCC(=O)O)C(=O)N[C@@H](Cc1c[nH]c2ccccc12)C(=O)N[C@@H](CC(C)C)C(=O)N[C@@H](CCCCN)C(=O)N[C@@H](C)C(=O)NCC(=O)NCC(=O)N1CCC[C@H]1C(=O)N[C@@H](CO)C(=O)N[C@@H](CO)C(=O)NCC(=O)N[C@@H](C)C(=O)N1CCC[C@H]1C(=O)N1CCC[C@H]1C(=O)N1CCC[C@H]1C(=O)N[C@@H](CO)C(=O)N[C@@H](CCCCN)C(N)=O)[C@@H](C)CC

Columns and labels:
Assay in all cases: cell-based or functional assay
[1] = target: human glucagon receptor (human) (UniProt P47871)
human glucagon receptor (human), sequence (P47871 26-477): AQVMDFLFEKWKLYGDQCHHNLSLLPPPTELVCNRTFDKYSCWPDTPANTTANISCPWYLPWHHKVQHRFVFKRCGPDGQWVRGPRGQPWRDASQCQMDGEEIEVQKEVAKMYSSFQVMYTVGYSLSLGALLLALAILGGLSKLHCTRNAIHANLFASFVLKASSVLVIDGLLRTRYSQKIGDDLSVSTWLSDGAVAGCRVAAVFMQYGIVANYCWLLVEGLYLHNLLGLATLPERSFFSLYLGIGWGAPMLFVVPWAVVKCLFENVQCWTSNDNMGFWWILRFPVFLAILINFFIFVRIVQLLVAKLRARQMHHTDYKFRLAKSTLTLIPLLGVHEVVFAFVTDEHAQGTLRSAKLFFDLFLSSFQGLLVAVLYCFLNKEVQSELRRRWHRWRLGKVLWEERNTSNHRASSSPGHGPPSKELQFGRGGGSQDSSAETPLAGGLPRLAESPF

[2] = target: human GLP-1 receptor (human) (UniProt P43220)
human GLP-1 receptor (human), sequence (P43220 24-463): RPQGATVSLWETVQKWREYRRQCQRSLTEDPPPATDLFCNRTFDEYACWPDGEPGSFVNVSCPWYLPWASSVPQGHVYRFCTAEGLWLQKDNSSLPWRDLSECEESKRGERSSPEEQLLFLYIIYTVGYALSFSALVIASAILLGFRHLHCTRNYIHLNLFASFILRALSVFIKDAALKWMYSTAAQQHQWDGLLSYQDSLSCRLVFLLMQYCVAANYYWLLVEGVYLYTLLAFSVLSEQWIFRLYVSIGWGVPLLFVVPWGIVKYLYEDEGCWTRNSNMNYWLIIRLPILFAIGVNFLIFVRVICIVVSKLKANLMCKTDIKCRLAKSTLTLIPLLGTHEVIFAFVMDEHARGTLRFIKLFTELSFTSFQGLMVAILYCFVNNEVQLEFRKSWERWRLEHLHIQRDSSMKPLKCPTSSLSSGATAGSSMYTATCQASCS

human glucagon receptor = human glucagon receptor (human, UniProt P47871 26-477)
human glucagon receptor, sequence (P47871 26-477): as the sequence (P47871 26-477) above

human GLP-1 receptor [3] = target: T1, human GLP-1 receptor (human, UniProt P43220 24-463)
human GIP receptor [4] = target: T2, human GIP receptor (human, UniProt P48546 22-466)
T2 sequence (looked up): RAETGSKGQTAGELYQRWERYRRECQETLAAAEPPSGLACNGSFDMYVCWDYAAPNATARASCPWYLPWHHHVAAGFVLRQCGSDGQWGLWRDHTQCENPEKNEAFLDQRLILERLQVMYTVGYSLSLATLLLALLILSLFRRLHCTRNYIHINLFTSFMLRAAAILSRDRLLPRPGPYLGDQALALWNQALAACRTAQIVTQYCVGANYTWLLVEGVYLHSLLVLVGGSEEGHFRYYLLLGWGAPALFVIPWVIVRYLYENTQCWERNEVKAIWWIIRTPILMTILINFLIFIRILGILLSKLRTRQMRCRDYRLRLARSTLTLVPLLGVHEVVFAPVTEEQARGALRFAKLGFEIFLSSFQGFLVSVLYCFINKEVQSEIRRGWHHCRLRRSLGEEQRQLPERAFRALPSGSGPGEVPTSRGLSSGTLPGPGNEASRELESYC

human GLP-1 receptor [5] = target: T1, human GLP-1 receptor; remark: listed apart in the source
Target sequence in this assay (P43220 24-463): as the sequence (P43220 24-463) above

human GIP receptor [6] = target: T2, human GIP receptor; remark: listed apart in the source

Molecule	EC50 hGlucagon R [pM] (cAMP formation, HTRF, HEK-293 cells) [1]	EC50 hGLP-1 R [pM] (cAMP formation, HTRF, HEK-293 cells) [2]	EC50 hGLUC R [pM] (cAMP formation, HTRF, HEK-293 cells) (human glucagon receptor)	EC50 hGLP-1 R [pM] (cAMP formation, HTRF, HEK-293 cells) (human GLP-1 receptor [3])	EC50 hGlP R [pM] (cAMP formation, HTRF, HEK-293 cells) (human GIP receptor [4])	EC50 hGLP-1 R [pM] (cAMP formation, HTRF, HEK-293 cells) (human GLP-1 receptor [5])	EC50 hGlP R [pM] (cAMP formation, HTRF, HEK-293 cells) (human GIP receptor [6])
exendin-4 (peptide)	> 1e+07	0.4					
B1			155000	1.2	7.9		
B2			193000	1.4	12.4		
B3			17900	2.6	17.9		
B4			129000	1.6	14.1		
YAEGTFTSDVSIYLEGQAAKEFIAWLVKGR (ends and bridges not checked) [Tyr(1)Ile(12)-GLP1]						5	3660
Y[Aib]EGTFTSDLSIQMEKRAA[Aib]EFIEWLKAGGPSSGAPPPS-NH2 [SEQ ID NO: 8]			> 1e+06	1.5	14.4		
